# Changes are numbered by the printed parent chain.
# T1: Rat ASGR-1 (rat, UniProt P02706 1-284)
# T1 construct: Expressed on HEK 293 cells or as membrane prep on beads; cDNA GenBank NM_012503
# T1 sequence: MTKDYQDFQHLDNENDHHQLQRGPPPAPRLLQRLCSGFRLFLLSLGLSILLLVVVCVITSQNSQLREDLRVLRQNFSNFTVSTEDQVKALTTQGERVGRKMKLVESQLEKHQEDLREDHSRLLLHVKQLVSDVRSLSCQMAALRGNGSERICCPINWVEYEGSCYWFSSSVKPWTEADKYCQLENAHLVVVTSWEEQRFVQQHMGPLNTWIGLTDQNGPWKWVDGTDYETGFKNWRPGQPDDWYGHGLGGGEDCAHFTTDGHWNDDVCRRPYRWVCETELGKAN
# T2: Dog ASGR-1 (dog)
# T2 construct: Expressed on HEK 293 cells or as membrane prep on beads; cDNA GenBank XM_546579
# T2 chain: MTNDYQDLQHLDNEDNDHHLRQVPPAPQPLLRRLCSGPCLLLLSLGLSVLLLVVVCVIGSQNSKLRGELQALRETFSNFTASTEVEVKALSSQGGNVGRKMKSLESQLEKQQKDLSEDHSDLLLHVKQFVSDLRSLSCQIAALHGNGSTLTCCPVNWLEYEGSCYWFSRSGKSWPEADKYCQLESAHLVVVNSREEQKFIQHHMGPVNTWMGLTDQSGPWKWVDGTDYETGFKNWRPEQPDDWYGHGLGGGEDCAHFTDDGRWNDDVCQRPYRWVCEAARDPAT
# T3: Mouse ASGR-1 (mouse, UniProt P34927 1-284)
# T3 construct: Expressed on HEK 293 cells or as membrane prep on beads; cDNA GenBank BC022106.1; also called muASGR-1; mASGR-1
# T3 sequence: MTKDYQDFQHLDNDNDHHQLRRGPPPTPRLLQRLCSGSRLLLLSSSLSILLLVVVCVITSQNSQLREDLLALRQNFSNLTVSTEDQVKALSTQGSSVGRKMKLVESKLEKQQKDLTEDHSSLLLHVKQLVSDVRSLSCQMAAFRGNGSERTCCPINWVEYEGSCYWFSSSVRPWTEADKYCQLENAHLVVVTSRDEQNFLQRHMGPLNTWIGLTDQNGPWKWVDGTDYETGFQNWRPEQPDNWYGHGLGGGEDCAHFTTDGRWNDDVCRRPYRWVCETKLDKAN
# T4: Pig ASGR-1 (pig)
# T4 construct: Expressed on HEK 293 cells or as membrane prep on beads; cDNA GenBank NM_001244458
# T4 chain: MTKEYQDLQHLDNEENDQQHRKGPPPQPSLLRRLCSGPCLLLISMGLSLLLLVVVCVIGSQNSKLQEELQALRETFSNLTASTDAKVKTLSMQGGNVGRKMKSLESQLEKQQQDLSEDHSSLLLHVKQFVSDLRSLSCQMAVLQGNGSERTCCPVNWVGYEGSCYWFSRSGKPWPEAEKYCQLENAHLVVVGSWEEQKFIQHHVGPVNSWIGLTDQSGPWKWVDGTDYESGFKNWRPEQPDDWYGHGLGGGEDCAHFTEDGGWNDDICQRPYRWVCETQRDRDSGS
# B1: 184E7 (antibody, V domains shown)
# VH: QVQLVQSGAEVKTPGASVKVSCRASGYTFTSYNMHWVRQVPGQGLEWMGWINPNNGGSNYTQKFQGRVTMTRDTSISTAYMELSRLRSDDTAVYYCARKFGDWGQGTLVTVSS
# VL: DIQMTQSPSSRSASIGERVTITCRASQGISNYLAWIQQKPGTAPKSLIYAASSLQSGVSSRFSGSGFGTDFTITISSVQREDFATYYCQQYNGYPFTFGHGTKVDIK
# notes: Tested as hybridoma supernatant at normalized concentration
# B2: 12D2 (antibody, V domains shown)
# VH: EVQLVESGGGLVKPGGSLRLSCAASGFTFSSYSMNWVRQAPGKGLEWVSSISSSSSYIYYADSVKGRFTISRDNAKNSLYLQMNSLRAEDTAVYYCARLGDYWGQGTLVAVSS
# VL: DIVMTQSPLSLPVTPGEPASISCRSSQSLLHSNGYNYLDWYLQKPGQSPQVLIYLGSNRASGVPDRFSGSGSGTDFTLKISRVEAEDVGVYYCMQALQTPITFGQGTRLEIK
# notes: as for B1
# B3: 5E5 (antibody, V domains shown)
# VH: QVQLVESGGGVVQPGRSLRLSCAASGFTFSNYVMHWVRQAPGKGLEWVAVIWYDGSNKYYADSVKGRFTISRDNSKNTLYLQMNSLRAEDTAVYYCTREVYSSGWYDYGMDVWGQGTTVTVSS
# VL: DIQMTQSPSSLSASVGDRVTITCRASQGIRNDLGWYQQKPGKAPKRLIYAASSLQSGVPSRFSGSGSGTEFTLTISSLQPEDFATYYCLQHYSYPRTFGQGTKVEVK
# notes: as for B1
# B4: 25A4 (antibody, V domains shown)
# VH: QVLLVQSGAEVKRPGASVKVSCKASGYTFTNYDINWVRQATGQGLEWMGWMYPNSGNTGYAQKFQGRVTMTRNTSISTAYMELSSLRSEDTAVYYCASSSGWYYFDYWGQGTLVTVSS
# VL: DIVMTQFPDSLAVSLGERATIKCKSSQSVLYSSHNNNYLAWYQQKPGQPPKLLLYWASTRESGVPDRFSGSGSGTEFTLTISSLEAEDVAVYYCQQYYSTPPTFGQGTKVEIK
# notes: as for B1
# B5: 26C4 (antibody, V domains shown)
# VH: B4 VH with L3Q, R13K, T41S, Y52N, K63R, S77N
# VL: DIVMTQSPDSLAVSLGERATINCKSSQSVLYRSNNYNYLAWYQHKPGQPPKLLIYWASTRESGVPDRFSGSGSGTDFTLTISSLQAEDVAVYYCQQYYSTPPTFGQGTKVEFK
# notes: as for B1
# B6: 4A2 (antibody, V domains shown)
# VH: B4 VH with L3Q, A9T, R13K, Y52H, M70L
# VL: DIVMTQSPDSLAVSLGERATINCKSSQSILHSSNNNNYLAWFQQKPGQPPKLLLYWASTRESGVPDRFSGSGSGTDFTLTISSLQPEDVAVYYCQQYYNTPVTFGPGTKVGIK
# notes: as for B1
# B7: 29H8 (antibody, V domains shown)
# VH: B4 VH with L3Q, K12Q, R13K, Y52N, K63R, T78A
# VL: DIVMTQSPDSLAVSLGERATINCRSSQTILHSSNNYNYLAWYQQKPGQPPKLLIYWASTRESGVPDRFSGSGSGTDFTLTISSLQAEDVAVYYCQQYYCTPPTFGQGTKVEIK
# notes: as for B1
# B8: 4H6 (antibody, V domains shown)
# VH: QVQLVQSGAEVKKPGASVKVSCKASGYTFTDYYLHWVRQAPGQGLEWMGWIHPNSGGTNYAQKFQGRVTMTRDTSISTAYMGLSSLRSDDTAVYYCARDGTSSFDYWGQGTLVTVSS
# VL: DIQMTQSPSSVSASVGDRVTITCRASQGISRWLAWYQQKPGKAPKLLIYGASSLQSGVPSRFSGSGSGTDFTLTISSLQPEDFAIYYCQQANSFPFTFGPGTKVDIK
# notes: as for B1
# B9: 72G9 (antibody, V domains shown)
# VH: EVQLVESGGGLVKPGGSLRLSCAASGFTFSSYSMNWVRQAPGKGLEWVSSISGSSSYIYYADSVKGRFTISRDNAKNSLYLQMNSLRAEDTAVYFCARGGSRGFDPWGQGTLVTVSS
# VL: B8 VL with V11L, G28S, S30T, R31S, W32Y, A34N, G50T, I85T, A91S, N92H
# notes: as for B1
# B10: 4B1 (antibody, V domains shown)
# VH: QVQLQESGPGLVKPSETLSLTCSVSGDSISSYSWSWIRQPAGKGLEWIGRIYTSGSTNYIPSLKSRITMSVDTSKKQFSLKLSSVTAADTAVYYCARDLKSSGCLFFDYWGQGTLVTVSS
# VL: DIQMTQSPSSLSASVGDRVTITCRASHTIRTYLNWYQQKPGKAPKLLIYAASSLQSGVPSRINGSGSGTDFTLTITNLQPEDFATYYCQQSYNISFTFGPGTKVDIK
# notes: as for B1
# B11: 193E7 (antibody, V domains shown)
# VH: QVQLQQWGAGLLKPSETLSLTCAVYGGSFSGYFWTWIRQPPGKGLEWIGEINHSGSTNYNPSLKSRVTISVDTSKNQFSLKLSSVTAADTAVYYCARDYGADYWGQGTLVAVSA
# VL: B3 VL with A50S, S56R, Y92K, S93R, R96L, Q100G, V106I
# notes: as for B1
# B12: 54E9 (antibody, V domains shown)
# VH: QVQLVQSGAEVKKPGASVKVSCKASGYTFNSYGISWVRLAPGQGLEWMGWISAYNGNTKNAQKLQGRVTMTTDTSTSTAYMELRSLRSDDTAVYYCARHDFWSGYYKGMDVWGQGTTVTVSS
# VL: not shown
# notes: as for B1
# B13: 22G5 (antibody, V domains shown)
# VH: EVQLLESGGGLVQPGGSLRLSCAASGFTFSSYAMNWVRQAPGMGLEWVSVISRSGGYTYYADSVKGRFTISRDNSKNTLYLQMNSLRAEDTAVYYCASRLAVAGSEAFDIWGQGTLVTVSS
# VL: DIQMTQSPSSLSASVGDRVTITCRASQNISSYLNWYQQKQGKAPKLLIYAASSLQNGVPSRFSGRGSGTDFTLTISSLQPEDFATYYCQQSYRTPLFTFGPGTKVDFK
# notes: as for B1
# Target: T1, Rat ASGR-1
# Assay: FACS on transfected HEK 293 cells or membrane preps on beads; Y = signal at least 2x irrelevant IgG
# How it was run: (§1)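 Antibodies at normalized concentrations bound 1 h at 4° C to HEK 293 cells expressing each antigen, then Alexa Fluor 647 anti-Fc plus 7-AAD 15 min at 4° C, flow cytometry; empty-vector cells as negative. Alternatively, species ASGR-1 membrane preps on streptavidin beads, antibody 1 h RT, Alexa Fluor 488 anti-Fc; FACS buffer with 1 mM CaCl2 throughout.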
row,binding result,Binder
1,binds,B1
2,binds,B2
3,binds,B3
4,binds,B4
5,binds,B5
6,binds,B6
7,binds,B7
8,binds,B8
9,binds,B9
10,binds,B10

# Target: T2, Dog ASGR-1
# Assay: as above
# How it was run: as §1
row,binding result,Binder
1,binds,B1
2,binds,B2
3,binds,B11
4,binds,B12
5,binds,B9
6,binds,B10

# Target: T3, Mouse ASGR-1
# Assay: as above
# How it was run: as §1
row,binding result,Binder
1,binds,B1
2,binds,B2
3,binds,B8
4,binds,B9
5,binds,B10

# Target: T1, Rat ASGR-1
# Assay: FACS on transfected HEK 293 cells or membrane preps on beads; binding = signal at least 2x irrelevant IgG
# How it was run: as §1
row,binding result,Binder
1,no binding,B11
2,no binding,B12
3,no binding,B13

# Target: T2, Dog ASGR-1
# Assay: as above
# How it was run: as §1
row,binding result,Binder
1,no binding,B3
2,no binding,B13
3,no binding,B4
4,no binding,B5
5,no binding,B6
6,no binding,B7
7,no binding,B8

# Target: T4, Pig ASGR-1
# Assay: as above
# How it was run: as §1
row,binding result,Binder
1,no binding,B11
2,no binding,B3
3,no binding,B12
4,no binding,B13

# — patent publication US20190248902A1 (published 2019)
